# Test results reported in the supplement of paper PMC12042874.
# ± gives the uncertainty stated by the source.
# Assay: amyloid nucleation score (Sup35N fusion, yeast selection) (log enrichment); library NNK3; higher = more nucleation; inactive = no reads after selection
# Outline: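 Peptides of 20 random codons, each fused to Sup35N, were expressed in psi-negative yeast. Cells were induced with 100 μM copper sulfate for 24 hours and grown 7 days at 30°C on medium lacking adenine and uracil, and plasmid inserts before and after selection were Illumina-sequenced. Nucleation scores are DiMSum log enrichments of output over input reads, centred on the mode score of non-aggregating sequences, and sequences under 100 input reads were excluded.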
row,Substance,amyloid nucleation score
1,LIYRLGNVHVPKYW,inactive
2,LKCDLMWLMLDNYTAVDSFR,inactive
3,LKCDWC,inactive
4,LKDYYFVLGHALYVLRNPMS,1.08 ± 0.13
5,LKFEVVMVLFSTIC,inactive
6,LKHVWLSDRALGSSLTCMAG,inactive
7,LKKVLPYGVRWTDITGPWVS,inactive
8,LKMSLPYNMMVIILKRGGAY,inactive
9,LKVSAFAYDKFLQRYMTVVT,inactive
10,LKVYR,inactive
11,LKYNEKDPFECH,-0.318 ± 0.42
12,LLAVLALVGLC,inactive
13,LLCIFDSRCERLNVLAFRYV,inactive
14,LLCLLQEIGFVAITGWI,inactive
15,LLDDVIRDAMPGSAGRSISG,inactive
16,LLFLNFTICCYSFRKGMHGF,-0.344 ± 0.32
17,LLGRSLH,inactive
18,LLGVLDSLMRRFMNHINETG,inactive
19,LLGVWG,0.217 ± 0.53
20,LLHTTLA,inactive
21,LLIGSGVSYFKTWFARHLTA,inactive
22,LLLRLLAWYMMVS,inactive
23,LLLSFYLNGILVIHML,inactive
24,LLMGFWIWFINGVCNVRTDS,inactive

row,Substance,amyloid nucleation score
1,LLMLTEQ,inactive
2,LLRKRHVLNTK,inactive
3,LLRVSYFIVLRTLN,inactive
4,LLSFENNSQLVYVCIDNTLE,inactive
5,LLSVTCTG,inactive
6,LLTNLCIQYISSTLYYDRLF,inactive
7,LLVANG,inactive
8,LLVAYDQIFNF,inactive
9,LLVLKYVMSRTWWSWGA,inactive
10,LLVSACA,inactive
11,LLVVNNCIYGMVKRSIGYD,2.13 ± 0.07
12,LLVWNLMTRFYYF,inactive
13,LLWLLIWEFHT,inactive
14,LLYNTMSLSSSWEY,0.893 ± 0.17
15,LLYYFYTFTQGR,-0.148 ± 0.43
16,LMGKTHFLSVVWVVQVG,inactive
17,LMILLGSKFRNANGTTSMLK,inactive
18,LMKSMSNLLYADLKEYSQVG,inactive
19,LMNKKCNPGDKTLQIYIRRG,inactive
20,LMSLWLLLWGTEESALDMAD,inactive
21,LMSYV,inactive
22,LNALLGQYSDISMRISLNVS,inactive
23,LNELHMFSGPAYLFSVFRDM,inactive
24,LNFRSV,inactive

row,Substance,amyloid nucleation score
1,LNFWTIAWARWRIFLCSVLQ,inactive
2,LNLVRNWTISAAGKVALKWS,inactive
3,LNMIHSVA,inactive
4,LNPLPQRLYSPCSLKFCNDG,inactive
5,LNPVKKLLGRLSGSREG,inactive
6,LNPVRSYSKNNIYLLTMLAL,inactive
7,LNRWCCFSVITMCLMANFDA,2 ± 0.089
8,LNSFQHGY,inactive
9,LNSKSSLVPNMLWDMREHAI,1.04 ± 0.12
10,LNSMGYFILFYIYRFLENLD,inactive
11,LNSYSLNWRRCMGVQHSLYP,inactive
12,LNVSRGWLVNILPYGCNI,inactive
13,LNVTLIMNRRLFMGTFHLW,inactive
14,LNWLAFSR,inactive
15,LNYDSSTRLNVLW,inactive
16,LNYEIWNISRFRTFFTGVSA,-0.332 ± 0.73
17,LNYFISLSGRSLPVSCNQIY,inactive
18,LNYMSDFYLLLSERTCVYYQ,0.754 ± 0.16
19,LNYVIVDSLDKVVQITREYS,inactive
20,LPAGFKSR,inactive
21,LPFCLN,inactive
22,LPGCSTWFGVFFIHDFNLTL,1.69 ± 0.091
23,LPHVAVEAVTLAMWVE,inactive
24,LPICGAD,inactive

row,Substance,amyloid nucleation score
1,LPKCGPRYFDWLNAPEDCMF,inactive
2,LPLLTYSSVSVRPLTSW,inactive
3,LPTCYSF,inactive
4,LQCLVSAKCNFCMYR,0.869 ± 0.19
5,LQFDYLMIYLVQFSVLWVCL,inactive
6,LQKGGNITCTVNHFMWVFAH,0.592 ± 0.32
7,LQVHILFMAIKYFSMAVV,inactive
8,LQYLVNLLMQWVLRKIVQKV,inactive
9,LRARPLLITFGVEWGSASDP,0.465 ± 0.22
10,LRATHVSVKGSGRYSVSTFS,inactive
11,LRDMTGILPRGRFADETSRF,inactive
12,LREVLCCVSTDSYVFILLRG,1.01 ± 0.14
13,LRGILSIVLVCGENYIKHCG,inactive
14,LRGITLSMQGCTDWFVMYLC,inactive
15,LRGYSASSSIVCESSRYARL,inactive
16,LRLGIEMNTIGTLNMGPLSL,inactive
17,LRNTFKCVTIRALGSKGGRA,inactive
18,LRPYHSRVWCVRLQSYSMVR,inactive
19,LRRDCFLDRSSLRHPVWEWL,inactive
20,LRSCSSWRRLFKRIVQRHWV,inactive
21,LRSYFALINRLPCTCTRGGM,inactive
22,LRTLSGNICANL,inactive
23,LRVQHFDTFNPANGSTPKVG,inactive
24,LRVVISLVIYMRSSTRICSV,inactive

row,Substance,amyloid nucleation score
1,LRYLIYTNYFRLFAWLNSCK,inactive
2,LSCFNSVAHCDVNSGMFQIV,inactive
3,LSEFYPAMRSTTTPVQNVSG,inactive
4,LSELSRSARVLMFQLFMSRC,1.87 ± 0.081
5,LSFLTHCRHSWVRVRDILWA,inactive
6,LSGACVHSAAGSALATQYAR,inactive
7,LSGANYLLIRNEGM,inactive
8,LSGKWNKMVCRLVTSKLIFE,inactive
9,LSGLRNAVERVVAGFIHGRV,inactive
10,LSIIRKVADRGDPSDLYKMV,inactive
11,LSILHYSLNCLYHRSYMCIL,inactive
12,LSITDVGI,inactive
13,LSIVITRYDMSCSAETMFNL,inactive
14,LSLLFALLAFEGVRASLSWG,inactive
15,LSLMSSVGCRCSVFSWLYVN,inactive
16,LSLNMVTDGIDDNGGNG,inactive
17,LSMLI,inactive
18,LSNFITTLSTWITLSI,inactive
19,LSNQLKDEYHCMWMWWVCPN,1.29 ± 0.13
20,LSRCMWDSDMYRGERYGRRR,inactive
21,LSRGDLLEYR,inactive
